Results from patent US20170137818, “APTAMER INHIBITING BIOLOGICAL ACTIVITY OF AUTOTAXIN BY BINDING WITH AUTOTAXIN, AND USE THEREOF” (RIBOMIC INC., published 2017).

What was measured:
autotaxin (ENPP2/NPP2) [1] = target: T1, autotaxin (ENPP2/NPP2) (Homo sapiens, UniProt Q13822 Q13822:36-863); test: inhibition; NPP2 assay, 37 C
[2] = target: T2, autotaxin (endogenous, human pooled serum) (Homo sapiens, UniProt Q13822 Q13822:36-863); test: inhibition; LPA production in serum, 0.10 uM
[3] = target: T2, autotaxin (endogenous, human pooled …); test: inhibition; LPA production in serum, 0.025 uM
autotaxin (ENPP2/NPP2) [4] = target: T1, autotaxin (ENPP2/NPP2); test: inhibition; LPA production, 1.0 uM aptamer, ~92% serum, 37C 3 h
autotaxin (ENPP2/NPP2) [5] = target: T1, autotaxin (ENPP2/NPP2); test: inhibition; LPA production, 0.025 uM aptamer, ~92% serum, 37C 3 h
autotaxin (ENPP2/NPP2) [6] = target: T1, autotaxin (ENPP2/NPP2); test: inhibition; LPA production, 0.20 uM aptamer, ~92% serum, 37C 3 h
autotaxin (ENPP2/NPP2) [7] = target: T1, autotaxin (ENPP2/NPP2); test: inhibition; NPP2 assay per text (column headed LysoPLD)

B1: SEQ 23 aptamer (ssDNA)
DNA: ACACTCACAGGCGCTGGCACGGACCGGAACCGGGACGCTCGGTCGACCGTGCATGGCCGCTAGT
**Q.** Which IC50 (autotaxin (ENPP2/NPP2) [1]) does the source give for B1 here?
**A.** The IC50 was 75 nM.

B2: SEQ 21 aptamer (ssDNA)
DNA: ACACTCACAGGCGCTGGCCACCACTGCACCGGAACCGCGAATGTGGTCGTGCATGGCCGCTAGT
**Q.** Which IC50 (autotaxin (ENPP2/NPP2) [1]) does the source give for B2 here?
**A.** Its IC50 is 28 nM.

B3: SEQ 6 aptamer (ssDNA)
DNA: GTGGTCTAGCTGTACTCGGAACCGTACTCAACGGTCAGTACCTTTGCGCCGCAGCAAGCCACAGTCAACGAGCTA
**Q.** B3 was tested. Which IC50 (autotaxin (ENPP2/NPP2) [1]) did it give?
**A.** The IC50 was 20 nM.

B4: 12(61) (ssDNA)
DNA: CCTGGACGGAACCAGAATACTTTTGGTCTCCAGG
modifications: 2'-OMe C7,G9,A14,G15,A19,C20,A32,G33,G34; P-methyl C12 (between C12 and C13); 5' idT, 3' idT
**Q.** With B4 as the binder, how does the activity [2] read?
**A.** Its activity is 91 % inhibition.

B5: 12(147) (ssDNA)
DNA: B4 DNA
modifications: 2'-OMe C7,G9,A14,G15,A19,C20,A32,G33,G34; P-methyl C1,G5,G8,C12,A14,A16,A19,T21,T23,C28,C30,C31,G34; 5' 40 kDa PEG via ssH linker, 3' idT
**Q.** B5 was tested. Which activity [3] did it give?
**A.** The activity was 70 % inhibition.

B6: 12(44) (ssDNA)
DNA: B4 DNA
modifications: 2'-OMe C1,G5,C7,G9,C13,A14,G15,A19,C20,A32,G33,G34; idT 5' and 3'
**Q.** For B6, which activity (autotaxin (ENPP2/NPP2) [4]) is on record?
**A.** The activity was 87 % inhibition.

B7: 12(46) (ssDNA)
DNA: B4 DNA
modifications: 2'-OMe C1,C7,G9,C13,A14,G15,A19,C20,A32,G33,G34; idT 5' and 3'
**Q.** With B7 as the binder, how does the activity (autotaxin (ENPP2/NPP2) [4]) read?
**A.** Its activity is 83 % inhibition.

B8: 12(136) (ssDNA)
DNA: B4 DNA
modifications: 2'-OMe C7,G9,A14,G15,A19,C20,A32,G33,G34; P-methyl C1,G5,G8,C12,A16,T21,T23,C28,C30,C31,G33; idT 5' and 3'
**Q.** For B8, which activity (autotaxin (ENPP2/NPP2) [5]) is on record?
**A.** The activity was 17 % inhibition.

B9: 12(51) (ssDNA)
DNA: B4 DNA
modifications: 2'-OMe C7,G9,A14,G15,A19,C20,A32,G33,G34; 5' 80 kDa PEG (GL2-800TS) via ssH linker; 3' idT
**Q.** B9 was tested. Which activity (autotaxin (ENPP2/NPP2) [6]) did it give?
**A.** The activity was 91 % inhibition.

B10: 12(138) (ssDNA)
DNA: B4 DNA
modifications: 2'-OMe C7,G9,A14,G15,A19,C20,A32,G33,G34; P-methyl C1,G5,G8,C12,A16,C20,T21,T23,C28,C30,C31; idT 5' and 3'
**Q.** Which activity (autotaxin (ENPP2/NPP2) [5]) does the source give for B10 here?
**A.** The activity was 44 % inhibition.

B11: 12(45) (ssDNA)
DNA: B4 DNA
modifications: 2'-OMe C1,C7,G9,C12,A14,G15,A19,C20,A32,G33,G34; idT 5' and 3'
**Q.** Which activity (autotaxin (ENPP2/NPP2) [4]) does the source give for B11 here?
**A.** The activity was 86 % inhibition.

B12: 12(140) (ssDNA)
DNA: B4 DNA
modifications: 2'-OMe C7,G9,A14,G15,A19,C20,A32,G33,G34; P-methyl C1,G5,G8,C12,G15,A16,T21,T23,C28,C30,C31; idT 5' and 3'
**Q.** Which activity (autotaxin (ENPP2/NPP2) [5]) does the source give for B12 here?
**A.** The activity was 29 % inhibition.

B13: 12(134) (ssDNA)
DNA: B4 DNA
modifications: 2'-OMe C7,G9,A14,G15,A19,C20,A32,G33,G34; P-methyl C1,G5,G8,C12,A16,T21,T23,C28,C30,C31; 5' 40 kDa PEG (GL2-400GS2) via ssH linker; 3' idT
**Q.** Which activity (autotaxin (ENPP2/NPP2) [5]) does the source give for B13 here?
**A.** Its activity is 69 % inhibition.

B14: 12(52) (ssDNA)
DNA: B4 DNA
modifications: 2'-OMe C7,G9,A14,G15,A19,C20,A32,G33,G34; 5' 80 kDa PEG (GL4-800GS2) via ssH linker; 3' idT
**Q.** B14 was tested. Which activity (autotaxin (ENPP2/NPP2) [6]) did it give?
**A.** The activity was 92 % inhibition.

B15: 12(142) (ssDNA)
DNA: B4 DNA
modifications: 2'-OMe C7,G9,A14,G15,A19,C20,A32,G33,G34; P-methyl C1,G5,G8,G9,C12,A16,T21,T23,C28,C30,C31; idT 5' and 3'
**Q.** With B15 as the binder, how does the activity (autotaxin (ENPP2/NPP2) [5]) read?
**A.** The activity was 44 % inhibition.

B16: 12(118) (ssDNA)
DNA: B4 DNA
modifications: 2'-OMe C7,G9,A14,G15,A19,C20,A32,G33,G34; P-methyl G8,C12; 5' idT, 3' idT
**Q.** Which activity [2] does the source give for B16 here?
**A.** Its activity is 98 % inhibition.

B17: 12(135) (ssDNA)
DNA: B4 DNA
modifications: 2'-OMe C7,G9,A14,G15,A19,C20,A32,G33,G34; P-methyl C1,G5,G8,C12,A16,T21,T23,C28,C30,C31,G34; 5' idT, 3' idT
**Q.** B17 was tested. Which activity [3] did it give?
**A.** The activity was 50 % inhibition.

B18: 12(151) (ssDNA)
DNA: B4 DNA
modifications: 2'-OMe C7,G9,A14,G15,A19,C20,A32,G33,G34; P-propoxy between C12 and C13; 5' idT, 3' idT
**Q.** How did the IC50 (autotaxin (ENPP2/NPP2) [7]) turn out when B18 was run?
**A.** Its IC50 is 0.32 nM.

B19: 12(141) (ssDNA)
DNA: B4 DNA
modifications: 2'-OMe C7,G9,A14,G15,A19,C20,A32,G33,G34; P-methyl C1,G5,G8,C12,A14,A16,T21,T23,C28,C30,C31; 5' idT, 3' idT
**Q.** Which activity [3] does the source give for B19 here?
**A.** Its activity is 56 % inhibition.

B20: 12(97) (ssDNA)
DNA: B4 DNA
modifications: 2'-OMe C7,G9,A14,G15,A19,C20,A32,G33,G34; P-methyl T27; 5' idT, 3' idT
**Q.** With B20 as the binder, how does the activity [2] read?
**A.** Its activity is 7 % inhibition.

B21: 12(53) (ssDNA)
DNA: B4 DNA
modifications: 2'-OMe C7,G9,A14,G15,A19,C20,A32,G33,G34; 5' 80 kDa PEG (GL4-800TS) via ssH linker; 3' idT
**Q.** For B21, which activity (autotaxin (ENPP2/NPP2) [6]) is on record?
**A.** Its activity is 92 % inhibition.

B22: 12(55) (ssDNA)
DNA: B4 DNA
modifications: 2'-OMe C7,G9,A14,G15,A19,C20,A32,G33,G34; 5' C12 spacer; 3' idT
**Q.** With B22 as the binder, how does the activity (autotaxin (ENPP2/NPP2) [6]) read?
**A.** The activity was 91 % inhibition.

B23: 12(146) (ssDNA)
DNA: B4 DNA
modifications: 2'-OMe C7,G9,A14,G15,A19,C20,A32,G33,G34; P-methyl C1,G5,G8,C12,A14,A16,T21,T23,C28,C30,C31; 5' 40 kDa PEG (GL2-400GS2) via ssH linker; 3' idT
**Q.** How did the activity (autotaxin (ENPP2/NPP2) [5]) turn out when B23 was run?
**A.** Its activity is 70 % inhibition.

B24: 12(57) (ssDNA)
DNA: B4 DNA
modifications: 2'-OMe C7,G9,A14,G15,A19,C20,A32,G33,G34; 5' 40 kDa PEG (GL2-400GS2) via ssH linker; 3' C12 spacer
**Q.** B24 was tested. Which activity (autotaxin (ENPP2/NPP2) [6]) did it give?
**A.** Its activity is 93 % inhibition.

B25: 12(145) (ssDNA)
DNA: B4 DNA
modifications: 2'-OMe C7,G9,A14,G15,A19,C20,A32,G33,G34; P-methyl C1,G5,G8,C12,A16,A19,T21,T23,C28,C30,C31; 5' 40 kDa PEG via ssH linker, 3' idT
**Q.** With B25 as the binder, how does the activity [3] read?
**A.** Its activity is 82 % inhibition.

B26: 12(43) (ssDNA)
DNA: B4 DNA
modifications: 2'-OMe C1,G5,C7,G9,C12,A14,G15,A19,C20,A32,G33,G34; idT 5' and 3'
**Q.** With B26 as the binder, how does the activity (autotaxin (ENPP2/NPP2) [4]) read?
**A.** The activity was 85 % inhibition.
